Source: paper PMC3858276

Biological target: both RasaN and SLP-76
Assay: supernatant depletion assay (pull-down titration); biotinylated SH2 domains on streptavidin-coated DynaBeads, washed once and serially diluted in 1x PBS; ADAP at 8 nM (PBS with 0.1% E. coli extract), 10 min at RT; unbound ADAP in the supernatant read by in-gel fluorescence; Kd estimated from the plot

Kd: 60 to 90 nM
B1: phosphorylated SNAP-ADAP fusion protein (ADAP amino acids 570-690) (domain or fragment)
chain: DYDSLKLKKDSLGAPSRPIEDDQEVYDDVAEQDDISSHSQSGSGGIFPPPPDDDIYDGIEEEDADDGFPAPPKQLDMGDEVYDDVDTSDFPVSSAEMSQGTNVGKAKTEEKDLKKLKKQEK
modifications: phosphotyrosine (in vitro phosphorylation by Fyn kinase, approx. 90% of each phosphorylation site; sites in Table S1); BG-647 dye on the SNAP-tag
